# Data reported in publication PMC10360031 (ACS Applied Materials & Interfaces, 2023).
# Target: T1, wild-strain SARS-CoV-2 spike protein RBD (SARS-CoV-2, UniProt P0DTC2)
# T1 construct: also called S1 RBD; wild-type strain S1 RBD
# Experiment: AFM single-molecule force spectroscopy
# Conditions: one partner purified
binder,measurement,value
"cell-surface vimentin (CSV) on mouse embryonic fibroblasts mEF +/+ (natural protein, also called extracellular Vim; native extracellular Vim; source: endogenous, on live mEF +/+ cells) not shown",koff,0.19 ± 0.07 s⁻¹
